Test [1] addresses T1, human CD4 receptor (human, UniProt P01730 26-396).
T1 construct: also called human CD4 protein
The test is described as follows: competition ELISA on CD4, competitor HRP-labeled wild type ibalizumab, pH 7.4. (An ELISA detects its analyte on a solid surface through an enzyme-linked reagent.)

For test [2], the target named is T1, human CD4 receptor. The test is described as follows: competition ELISA on CD4, competitor HRP-labeled wild type ibalizumab; fold reduced binding vs wt at pH 5.0 over that at pH 7.4.

Substitutions are numbered along the chain they refer to. In names and notes the source's numbering stands. A value given as a limit tells only on which side of the number the result lay.

B1: ibalizumab LC S56H variant (antibody, human IgG1, kappa, V domains shown)
VH: QVQLQQSGPEVVKPGASVKMSCKASGYTFTSYVIHWVRQKPGQGLDWIGYINPYNDGTDYDEKFKGKATLTSDTSTSTAYMELSSLRSEDTAVYYCAREKDNYATGAWFAYWGQGTLVTVSS
VL: DIVMTQSPDSLAVSLGERVTMNCKSSQSLLYSTNQKNYLAWYQQKPGQSPKLLIYWASTREHGVPDRFSGSGSGTDFTLTISSVQAEDVAVYYCQQYYSYRTFGGGTKLEIKR
Consider B1, for which, in test [1], the “fold vs wt affinity at pH 7.4” value was 1.3 fold. Further, in test [2], the “pH 5.0/pH 7.4 differential” value turned out to be 0.8.

B2: ibalizumab light chain S93/Y94 double histidine mutant (antibody, human IgG1, kappa, V domains shown)
VH: B1 VH
VL: B1 VL with H62S, S99H, Y100H
notes: also called combination of S93 and Y94; S93/Y94 double mutant
For B2, the “pH 5.0/pH 7.4 differential” value in test [2] was determined as 3.

B3: ibalizumab variant with a histidine mutation at residue Y94 in the light chain (antibody, human IgG1, kappa, V domains shown)
VH: B1 VH
VL: B1 VL with H62S, Y100H
notes: also called Y94H; LC Y94
Take B3: in test [1], the “fold reduced CD4 binding vs wt at pH 7.4” value was less than 3 fold.

B4: ibalizumab variant with a histidine mutation at residue S93 in the light chain (antibody, human IgG1, kappa, V domains shown)
VH: B1 VH
VL: B1 VL with H62S, S99H
notes: also called S93H
On to B4, for which the “fold reduced CD4 binding vs wt at pH 7.4” value in test [1] was less than 3 fold.

B5: ibalizumab light chain triple Y92H/S93H/Y94H variant (antibody, human IgG1, kappa, V domains shown)
VH: B1 VH
VL: B1 VL with H62S, Y98H, S99H, Y100H
As to B5, the “pH 5.0/pH 7.4 differential” value in test [2] is 3.4.

B6: ibalizumab variant with a histidine mutation at residue Y92 in the light chain (antibody, human IgG1, kappa, V domains shown)
VH: B1 VH
VL: B1 VL with H62S, Y98H
notes: also called Y92H
B6: in test [1], the “fold loss of affinity vs wt at pH 7.4” value was more than 2.6 fold and the “fold reduced CD4 binding vs wt at pH 7.4” value is less than 3 fold.

These data come from patent US20210054054A1 (ROCKEFELLER UNIVERSITY, published 2021).
